Patent publication US20190194323A1 (ALLAKOS, published 2019)

These binders were tested against T1, Siglec-7-ECD (human, UniProt Q9Y286 19-353) (assay: monovalent Fab; bio-layer interferometry (ForteBio) per Methods).
T1 construct: also called p75; AIRM
T1 sequence (Q9Y286 19-353 limits assumed): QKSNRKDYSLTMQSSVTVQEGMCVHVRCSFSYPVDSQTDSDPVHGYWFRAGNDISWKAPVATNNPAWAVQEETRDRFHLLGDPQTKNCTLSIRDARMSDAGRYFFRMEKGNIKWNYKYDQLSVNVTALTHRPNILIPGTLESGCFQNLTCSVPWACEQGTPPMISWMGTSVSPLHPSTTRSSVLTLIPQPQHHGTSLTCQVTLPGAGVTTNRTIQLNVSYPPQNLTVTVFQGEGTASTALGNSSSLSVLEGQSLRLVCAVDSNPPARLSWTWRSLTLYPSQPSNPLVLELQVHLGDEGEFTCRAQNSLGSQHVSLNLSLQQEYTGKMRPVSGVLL

Kd	Binder
< 0.075 nM	humanized 16H11-derived Fab, VH AK446-7 / VL AK418-2 (Fab, V domains shown, Measured as monovalent Fab; also called No. 33; AK446-7/AK418-2) VH: QVQLVQSGAEVKKPGSSVKVSCKASGYDFSNFWMNWVRQAPGQGLEWMGQIYPGDGEIKYNQKFQGRVTITADESTSTAYMELSSLRSEDTAVYYCARDDYLRAMDIWGQGTMVTVSS VL: DIQMTQSPSSLSASVGDRVTITCRASGNIHNYLAWYQQKPGKAPKFLLYSAKRLESGVPSRFSGSGSGTDYTLTISSLQPEDFATYYCQHFWSSPYTFGGGTKVEIK
> 0.5 nM	humanized 16H11-derived Fab, VH AK446-7 / VL AK419-2 (Fab, V domains shown, Measured as monovalent Fab; also called No. 37) VH: QVQLVQSGAEVKKPGSSVKVSCKASGYDFSNFWMNWVRQAPGQGLEWMGQIYPGDGEIKYNQKFQGRVTITADESTSTAYMELSSLRSEDTAVYYCARDDYLRAMDIWGQGTMVTVSS VL: DIQMTQSPSSLSASVGDRVTITCRASQNIHNYLAWYQQKPGKAPKFLLYSAKRLESGVPSRFSGSGSGTDYTLTISSLQPEDFATYYCQHFWSSPYTFGGGTKVEIK
> 0.5 nM	humanized 16H11-derived Fab, VH AK417-17 / VL AK427-1 (Fab, V domains shown, Measured as monovalent Fab; also called No. 10) VH: QVQLVQSGAEVKKPGSSVKVSCKASGYDFSNFWMNWVRQAPGQGLEWMGGIYPGDGEINYAQKFQGRVTITADESTSTAYMELSSLRSEDTAVYYCARDDYLRAMDIWGQGTMVTVSS VL: DIQMTQSPSSLSASVGDRVTITCRASQNIHNYLAWYQQKPGKAPKLLLYSAKRLEDGVPSRFSGSGSGTDYTLTISSLQPEDFATYYCQHFWSSPYTFGGGTKVEIK
< 0.075 nM	humanized 16H11-derived Fab, VH AK441-2 / VL AK418-2 (Fab, V domains shown, Measured as monovalent Fab; also called No. 19; VH441-2 and VL418-2) VH: QVQLVQSGAEVKKPGSSVKVSCKGSGYDFSNFWMNWVRQAPGQGLEWMGQIYPGDGEIKYNQKFQGRVTLTADESTSTAYMELSSLRSEDTAVYYCARDDYLRAMDIWGQGTMVTVSS VL: DIQMTQSPSSLSASVGDRVTITCRASGNIHNYLAWYQQKPGKAPKFLLYSAKRLESGVPSRFSGSGSGTDYTLTISSLQPEDFATYYCQHFWSSPYTFGGGTKVEIK
> 0.5 nM	humanized 16H11-derived Fab, VH AK417-17 / VL AK425-3 (Fab, V domains shown, Measured as monovalent Fab; also called No. 8) VH: QVQLVQSGAEVKKPGSSVKVSCKASGYDFSNFWMNWVRQAPGQGLEWMGGIYPGDGEINYAQKFQGRVTITADESTSTAYMELSSLRSEDTAVYYCARDDYLRAMDIWGQGTMVTVSS VL: DIQMTQSPSSLSASVGDRVTITCRASGNIHNYLAWYQQKPGKAPKLLLYSAKRLEDGVPSRFSGSGSGTDYTLTISSLQPEDFATYYCQHFWSSPYTFGGGTKVEIK
< 0.1 nM	humanized 16H11-derived Fab, VH AK449-4 / VL AK448-3 (Fab, V domains shown, Measured as monovalent Fab; also called No. 29; VH449-4 and VL448-3) VH: QVQLVQSGAEVKKPGSSVKVSCKASGYDFSNFWMNWVRQAPGQGLEWMGGIYPGDGEIKYNQKFQGRVTITADESTSTAYMELSSLRSEDTAVYYCARDDYLRAMDIWGQGTMVTVSS VL: DIQMTQSPSSLSASVGDRVTITCRASQNIHNYLAWYQQKPGKAPKFLLYSAKRLESGVPSRFSGSGSGTDYTLTISSLQPEDFATYYCQHFWSSPYTFGQGTKLEIK
< 0.075 nM	humanized 16H11-derived Fab, VH AK445-3 / VL AK418-2 (Fab, V domains shown, Measured as monovalent Fab; also called No. 25; VH445-3 and VL418-2) VH: QVQLVQSGAEVKKPGSSVKVSCKASGYDFSNFWMNWVRQAPGQGLEWMGQIYPGDGEIKYNQKFQGRVTLTADESTSTAYMELSSLRSEDTAVYYCARDDYLRAMDIWGQGTMVTVSS VL: DIQMTQSPSSLSASVGDRVTITCRASGNIHNYLAWYQQKPGKAPKFLLYSAKRLESGVPSRFSGSGSGTDYTLTISSLQPEDFATYYCQHFWSSPYTFGGGTKVEIK
0.075 to 0.15 nM	humanized 16H11-derived Fab, VH AK447-2 / VL AK418-2 (Fab, V domains shown, Measured as monovalent Fab; also called No. 26) VH: QVQLVQSGAEVKKPGSSVKVSCKASGYDFSNFWMNWVRQAPGQGLEWMGQIYPGDGEINYNQKFQGRVTITADESTSTAYMELSSLRSEDTAVYYCARDDYLRAMDIWGQGTMVTVSS VL: DIQMTQSPSSLSASVGDRVTITCRASGNIHNYLAWYQQKPGKAPKFLLYSAKRLESGVPSRFSGSGSGTDYTLTISSLQPEDFATYYCQHFWSSPYTFGGGTKVEIK
< 0.075 nM	humanized 16H11-derived Fab, VH AK443-1 / VL AK418-2 (Fab, V domains shown, Measured as monovalent Fab; also called No. 23; VH443-1 and VL418-2) VH: QVQLVQSGAEVKKPGSSVKVSCKGSGYDFSNFWMNWVRQAPGQGLEWMGQIYPGDGEIKYNQKFQGRVTITADESTSTAYMELSSLRSEDTAVYYCARDDYLRAMDIWGQGTMVTVSS VL: DIQMTQSPSSLSASVGDRVTITCRASGNIHNYLAWYQQKPGKAPKFLLYSAKRLESGVPSRFSGSGSGTDYTLTISSLQPEDFATYYCQHFWSSPYTFGGGTKVEIK
0.25 nM	humanized 16H11-derived Fab, VH AK417-8 / VL AK439-5 (Fab, V domains shown, Measured as monovalent Fab; also called No. 22) VH: QVQLVQSGAEVKKPGSSVKVSCKASGYDFSNFWMNWVRQAPGQGLEWMGGIYPGDGEINYAQKFQGRVTITADESTSTAYMELSSLRSEDTAVYYCARDDYLRAMDVWGQGTMVTVSS VL: DIQMTQSPSSLSASVGDRVTITCRASQNIHNYLAWYQQKPGKAPKFLLYSAKRLEDGVPSRFSGSGSGTDYTLTISSLQPEDFATYYCQHFWSSPYTFGQGTKLEIK
< 0.075 nM	humanized 16H11-derived Fab, VH AK446-7 / VL AK448-3 (Fab, V domains shown, Measured as monovalent Fab; also called No. 34; AK446-7/AK448-3) VH: QVQLVQSGAEVKKPGSSVKVSCKASGYDFSNFWMNWVRQAPGQGLEWMGQIYPGDGEIKYNQKFQGRVTITADESTSTAYMELSSLRSEDTAVYYCARDDYLRAMDIWGQGTMVTVSS VL: DIQMTQSPSSLSASVGDRVTITCRASQNIHNYLAWYQQKPGKAPKFLLYSAKRLESGVPSRFSGSGSGTDYTLTISSLQPEDFATYYCQHFWSSPYTFGQGTKLEIK
< 0.075 nM	humanized 16H11-derived Fab, VH AK444-2 / VL AK418-2 (Fab, V domains shown, Measured as monovalent Fab; also called No. 24; VH444-2 and VL418-2) VH: QVQLVQSGAEVKKPGSSVKVSCKASGYDFSNFWMNWVRQAPGQGLEWMGQIYPGDGEIKYNQKFQGRVTITADESTSTAYMELSSLRSEDTAVYFCARDDYLRAMDYWGQGTLVTVSS VL: DIQMTQSPSSLSASVGDRVTITCRASGNIHNYLAWYQQKPGKAPKFLLYSAKRLESGVPSRFSGSGSGTDYTLTISSLQPEDFATYYCQHFWSSPYTFGGGTKVEIK
< 0.075 nM	humanized 16H11-derived Fab, VH AK387-11 / VL AK418-2 (Fab, V domains shown, Measured as monovalent Fab; also called No. 32; VH387-11 and VL418-2) VH: QVQLVQSGAEVKKPGSSVKVSCKGSGYDFSNFWMNWVRQAPGQGLEWMGQIYPGDGEIKYNQKFQGRVTLTADESTSTAYMELSSLRSEDTAVYFCARDDYLRAMDYWGQGTLVTVSS VL: DIQMTQSPSSLSASVGDRVTITCRASGNIHNYLAWYQQKPGKAPKFLLYSAKRLESGVPSRFSGSGSGTDYTLTISSLQPEDFATYYCQHFWSSPYTFGGGTKVEIK
0.25 to 0.5 nM	humanized 16H11-derived Fab, VH AK410-1 / VL AK418-2 (Fab, V domains shown, Measured as monovalent Fab; also called No. 1; AK410-1/AK418-2) VH: QVQLVQSGAEVKKPGSSVKVSCKASGYDFSNFWMNWVRQAPGQGLEWMGGIYPGDGEINYAQKFQGRVTITADESTSTAYMELSSLRSEDTAVYYCARDDYLRAMDYWGQGTLVTVSS VL: DIQMTQSPSSLSASVGDRVTITCRASGNIHNYLAWYQQKPGKAPKFLLYSAKRLESGVPSRFSGSGSGTDYTLTISSLQPEDFATYYCQHFWSSPYTFGGGTKVEIK
> 0.5 nM	humanized 16H11-derived Fab, VH AK417-17 / VL AK424-1 (Fab, V domains shown, Measured as monovalent Fab; also called No. 7) VH: QVQLVQSGAEVKKPGSSVKVSCKASGYDFSNFWMNWVRQAPGQGLEWMGGIYPGDGEINYAQKFQGRVTITADESTSTAYMELSSLRSEDTAVYYCARDDYLRAMDIWGQGTMVTVSS VL: DIQMTQSPSSLSASVGDRVTITCRASGNIHNYLAWYQQKPGKAPKLLLYSAKRLASGVPSRFSGSGSGTDYTLTISSLQPEDFATYYCQHFWSSPYTFGGGTKVEIK
> 0.5 nM	humanized 16H11-derived Fab, VH AK417-17 / VL AK426-2 (Fab, V domains shown, Measured as monovalent Fab; also called No. 9) VH: QVQLVQSGAEVKKPGSSVKVSCKASGYDFSNFWMNWVRQAPGQGLEWMGGIYPGDGEINYAQKFQGRVTITADESTSTAYMELSSLRSEDTAVYYCARDDYLRAMDIWGQGTMVTVSS VL: DIQMTQSPSSLSASVGDRVTITCRASQNIHNYLAWYQQKPGKAPKLLLYSAKRLASGVPSRFSGSGSGTDYTLTISSLQPEDFATYYCQHFWSSPYTFGGGTKVEIK
0.075 to 0.15 nM	humanized 16H11-derived Fab, VH AK449-4 / VL AK418-2 (Fab, V domains shown, Measured as monovalent Fab; also called No. 28) VH: QVQLVQSGAEVKKPGSSVKVSCKASGYDFSNFWMNWVRQAPGQGLEWMGGIYPGDGEIKYNQKFQGRVTITADESTSTAYMELSSLRSEDTAVYYCARDDYLRAMDIWGQGTMVTVSS VL: DIQMTQSPSSLSASVGDRVTITCRASGNIHNYLAWYQQKPGKAPKFLLYSAKRLESGVPSRFSGSGSGTDYTLTISSLQPEDFATYYCQHFWSSPYTFGGGTKVEIK
0.25 to 0.5 nM	humanized 16H11-derived Fab, VH AK417-17 / VL AK421-3 (Fab, V domains shown, Measured as monovalent Fab; also called No. 5) VH: QVQLVQSGAEVKKPGSSVKVSCKASGYDFSNFWMNWVRQAPGQGLEWMGGIYPGDGEINYAQKFQGRVTITADESTSTAYMELSSLRSEDTAVYYCARDDYLRAMDIWGQGTMVTVSS VL: DIQMTQSPSSLSASVGDRVTITCRASGNIHNYLAWYQQKPGKAPKFLLYSAKRLESGVPSRFSGSGSGTDYTLTISSLQPEDFATYYCQHFWSSPYTFGQGTKLEIK
< 0.075 nM	humanized 16H11-derived Fab, VH AK438-4 / VL AK418-2 (Fab, V domains shown, Measured as monovalent Fab; also called No. 17; VH438-4 and VL418-2) VH: QVQLVQSGAEVKKPGSSVKVSCKASGYDFSNFWMNWVRQAPGQGLEWMGQIYPGDGEIKYNQKFQGRVTLTADESTSTAYMELSSLRSEDTAVYFCARDDYLRAMDYWGQGTLVTVSS VL: DIQMTQSPSSLSASVGDRVTITCRASGNIHNYLAWYQQKPGKAPKFLLYSAKRLESGVPSRFSGSGSGTDYTLTISSLQPEDFATYYCQHFWSSPYTFGGGTKVEIK
0.25 to 0.5 nM	humanized 16H11-derived Fab, VH AK417-17 / VL AK439-5 (Fab, V domains shown, Measured as monovalent Fab; also called No. 21) VH: QVQLVQSGAEVKKPGSSVKVSCKASGYDFSNFWMNWVRQAPGQGLEWMGGIYPGDGEINYAQKFQGRVTITADESTSTAYMELSSLRSEDTAVYYCARDDYLRAMDIWGQGTMVTVSS VL: DIQMTQSPSSLSASVGDRVTITCRASQNIHNYLAWYQQKPGKAPKFLLYSAKRLEDGVPSRFSGSGSGTDYTLTISSLQPEDFATYYCQHFWSSPYTFGQGTKLEIK
< 0.1 nM	humanized 16H11-derived Fab, VH AK440-2 / VL AK418-2 (Fab, V domains shown, Measured as monovalent Fab; also called No. 18; VH440-2 and VL418-2) VH: QVQLVQSGAEVKKPGSSVKVSCKGSGYDFSNFWMNWVRQAPGQGLEWMGQIYPGDGEIKYNQKFQGRVTITADESTSTAYMELSSLRSEDTAVYFCARDDYLRAMDYWGQGTLVTVSS VL: DIQMTQSPSSLSASVGDRVTITCRASGNIHNYLAWYQQKPGKAPKFLLYSAKRLESGVPSRFSGSGSGTDYTLTISSLQPEDFATYYCQHFWSSPYTFGGGTKVEIK
0.075 to 0.15 nM	humanized 16H11-derived Fab, VH AK447-2 / VL AK448-3 (Fab, V domains shown, Measured as monovalent Fab; also called No. 27) VH: QVQLVQSGAEVKKPGSSVKVSCKASGYDFSNFWMNWVRQAPGQGLEWMGQIYPGDGEINYNQKFQGRVTITADESTSTAYMELSSLRSEDTAVYYCARDDYLRAMDIWGQGTMVTVSS VL: DIQMTQSPSSLSASVGDRVTITCRASQNIHNYLAWYQQKPGKAPKFLLYSAKRLESGVPSRFSGSGSGTDYTLTISSLQPEDFATYYCQHFWSSPYTFGQGTKLEIK
